Assay results published in publication PMC8234031, “Modular Assembly of Phosphite Dehydrogenase and Phenylacetone Monooxygenase for Tuning Cofactor Regeneration” (Biomolecules, 2021).

Tests used:
[1] = target: PTDHI (phosphite dehydrogenase with a C-terminal RIDD tag)
[2] = target: PTDHA2 (phosphite dehydrogenase with a C-terminal RIAD–RIAD tag); assay: SEC; each purified tagged protein alone, in the absence of any other tagged protein; Superdex 200 (10/300), 50 mM Tris–HCl with 150 mM NaCl, pH 7.5
[3] = target: PTDHA (phosphite dehydrogenase with a C-terminal RIAD tag); assay: as above

## PAMOA2 (phenylacetone monooxygenase with a C-terminal RIAD–RIAD tag) (enzyme)
[1]
  conversion of 5.0 mM bicyclo[3.2.0]hept-2-en-6-one after 24 h by the mixture of the two tagged enzymes: 78%

## PTDHA2 (phosphite dehydrogenase with a C-terminal RIAD–RIAD tag) (enzyme)
[2]
  stoichiometry N: 2

## PAMOA (phenylacetone monooxygenase with a C-terminal RIAD tag) (enzyme)
[1]
  conversion of 5.0 mM bicyclo[3.2.0]hept-2-en-6-one after 24 h by the mixture of the two tagged enzymes: 78%

## PTDHA (phosphite dehydrogenase with a C-terminal RIAD tag) (enzyme)
[3]
  stoichiometry N: 2
